# Assay results reported in article PMC7755780, “Tetrachloroethene respiration in Sulfurospirillum species is regulated by a two‐component system as unraveled by comparative genomics, transcriptomics, and regulator binding studies”.
# T1: RR2 (PceP), OmpR-family response regulator of TCS2 (Sulfurospirillum halorespirans (DSM 13726?)) (UniProt A0A1D7TJV3)
# T1 sequence: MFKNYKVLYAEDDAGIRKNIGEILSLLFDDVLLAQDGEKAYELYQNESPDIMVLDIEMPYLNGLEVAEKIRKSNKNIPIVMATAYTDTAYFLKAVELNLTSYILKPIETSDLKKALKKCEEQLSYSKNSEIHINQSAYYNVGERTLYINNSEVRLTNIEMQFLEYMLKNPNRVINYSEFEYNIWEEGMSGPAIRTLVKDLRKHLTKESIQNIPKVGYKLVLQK
# T2: RR2 (PceP), OmpR-family response regulator of TCS2 (Sulfurospirillum halorespirans, UniProt A0A1D7TJV3 1-223)
# T2 sequence: T1 sequence
# B1: ppceAB minimum 70-bp fragment (dsDNA)
# DNA 1: ATTATTTTAAAATTAAAATCTATATCTTTCCTATAACAAAGCTATAACTTTTGTATATCATTCTTAAAAT
# DNA 2: ATTTTAAGAATGATATACAAAAGTTATAGCTTTGTTATAGGAAAGATATAGATTTTAATTTTAAAATAAT
# Biological target: T1, RR2 (PceP), OmpR-family response regulator of TCS2 (Sulfurospirillum halorespirans (DSM 13726?))
# Experiment: EMSA
# Conditions: EMSA: 10 mM HEPES pH 7.6, 2 mM MgCl2, 200 mM KCl, 0.1 mM EDTA, 5 mM DTT, 10% glycerol, 50 ug/ul Ficoll 70, 250 ng poly(dI/dC), 2.5 pmol DNA in 15 ul, room …
row,Molecule,binding
1,ATTGTCTGATATATTGACAAAATCTTTATAAAATCTCCAAAAATATAAAAAAAGAAAAGTATTTACTTATTACTTCGTAAATATTATTAACTTTCATTATTTTAAAATTAAAATCTATATCTTTCCTATAACAAAGCTATAACTTTTGTATATCATTCTTAAAATGTGAAATTAATTCATAAACACATTAAAAAATAAATAACTGTACTTGGGGTTATTTATAAAAGGTTACAAGAAGGTTTGAATACCACTGTGTAAGTTGTTACTCTTGGTATTTTTTAAGGAGGAAGTATG (double strand) [ppceAB promoter],binds
2,CATATTCTATCCTTATTTTTAAAATATTTAATTATTATAAATGTAAGTATAGAAAATAATTATAGGTTGTTTGTAGATAATAATAATTTTTCTACTAATTCTTTAATCATTAAATAATATTCAGTAGTATTTCTATCTATCTCGATGCTCAAAAAAACACCATCAATTCTATCAATATCTACATCTATAACTTTTTCTTAA (double strand) [p1494 (ahpD-like gene promoter)],binds more weakly
3,CATGTGTGAACCTATCCTATAGTTTATAACTATGATTCTATCAGATATTTTGTTAAAAATTAACTTAAAAGAGTAAAAATTATCTATTTAATAGTTACCCTATATTTCACCTATAAGTTACCTATAAATATTCATAAAATTCAAGGTTCTCTCTTTATTGCACACAAAGTTACTACAAGTTTTATGTACT (double strand) [pTCS2/SHALO_1504 intergenic region (pTCS2)],binds
4,CATTAAATTCTTAATTACATCATTATATCACAAAAAAGGCAAGGAATGATAAAAAAGTTTTATCATCTAAGTGAAGTATTAGACAATATCATATAATTAAATAGTTAAAGTAGTATAAATAAACCGTAAAATATGCAAATAACTGCATTTATAAGCTAATATTAATAAAATATACAA (double strand) [p1552 promoter (phage CI repressor superfamily gene)],no binding
5,CTGCATAGAGTATTGTATAAGAAGCGAGCATGTTAAATCCCTGAAATTTTATGAATAATGTACGTATTATAAAAAAAGAAATATAGAACTTGTAGATAAAAAATATTTTCCTTCTATTTTAGTTATACAACGGTTGCATAAGTTTTAAATACAATTTTCATAATAAGTCAGATGTTAAATGGTTGTACTTGGGATCATTTAATTAAAGGTTACAAGAAGGTTTAAAATCATTATCATGATTGTATGGTAGATGATTTTTTAAGGAGTAAATATG (double strand) [prdhAB promoter],binds more weakly
6,TCTATCAGATATTTTGTTAAAAATTAACTTAAAAGAGTAAAAATTATCTATTTAATAGTTACCCTATATTTCACCTATAAGTTAC (double strand) [pTCS2/SHALO_1504 f9 (lacks repeat closest to SHALO_1504 TSS)],no binding
7,TTCACCTATAAGTTACCTATAAATATTCATAAAATTCAAGGTTCTCTCTTTATTGCACACAAAGTTACTACAAGTTTTATGTACT (double strand) [pTCS2/SHALO_1504 f2 (first CCTATA incomplete)],binds more weakly

# Biological target: T2, RR2 (PceP), OmpR-family response …
# Experiment: EMSA; minimum binding fragment; 30 or 60 pmol RR2; EMSA: 10 mM HEPES pH 7.6, 2 mM MgCl2, 200 mM KCl, 0.1 mM EDTA, 5 mM DTT, 10% glycerol, 50 ug/ul Ficoll 70, 250 ng poly(dI/dC), 2.5 pmol DNA in 15 ul, room temperature 20 min; gel with 30% triethylene glycol in 1x TAE
# Conditions: protein: recombinant; tags: Twin-Strep; chain copies: 2; label: 6-FAM; blunt
row,Molecule,binding result
1,B1,binds
